The chains are these.
T1: human GITR (full length, on cells) (human, UniProt Q9Y5U5 26-241)
T1 construct: whole, on cells; Also used here for hGITR on the Jurkat reporter cells and on spleen cells of mice knocked-in with the human GITR gene; also called hGITR
T1 sequence (looked up): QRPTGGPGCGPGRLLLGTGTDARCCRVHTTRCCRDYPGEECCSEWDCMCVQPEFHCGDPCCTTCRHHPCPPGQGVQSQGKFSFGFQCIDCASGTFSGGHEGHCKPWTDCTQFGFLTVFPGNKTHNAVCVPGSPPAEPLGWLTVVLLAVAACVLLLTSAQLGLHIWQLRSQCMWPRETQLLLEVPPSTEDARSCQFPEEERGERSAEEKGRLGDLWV

T2: hGITR-ECD-hFc (human, UniProt Q9Y5U5 26-161)
T2 construct: ECD put first; also called immunogen A; human GITR extracellular domain protein with hFc tag; not shown: human IgG Fc fragment (hFc) of the pCpC vector
T2 chain: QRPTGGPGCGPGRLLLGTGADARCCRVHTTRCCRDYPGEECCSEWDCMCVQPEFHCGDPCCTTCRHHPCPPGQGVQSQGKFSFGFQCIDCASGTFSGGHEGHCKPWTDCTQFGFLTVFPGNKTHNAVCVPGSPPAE

B1: 3503-hab064 (antibody, V domains shown)
VH: QVQLVESGGGVVQPGRSLRLSCAASGFTFSSYGMHWVRQAPGKGLEWVAVIWYETSNKYYADSVKGRFTISRDNSKNTLYLQMNNLRAEDTAVYYCARYGGNSGWYWYFDLWGRGTLVTVSS
VL: DIQLTQSPSFLSASVGDRVTITCRASQGISSFLAWYQQKPGTAPKLLIYAASTLQSGVPSRFSGSGSGTEFTLTISSLQPEDFATYCCQQLNSYPFTFGQGTKLEIK
notes: also called 265G9A11; fully human anti-GITR antibody
B2: 3503-hab076 (antibody, V domains shown)
VH: B1 VH with N85S, G101A, N102S
VL: B1 VL with F32Y, T42K
notes: also called 277C12G4; fully human anti-GITR antibody
B3: 3503-hab019 (antibody, V domains shown)
VH: QVQLVESGGGVVQPGRSLRLSCAASGFTFSSYGMHWVRQAPGKGLEWVAVIWYAGSRKFYADSVEGRFTISRDNSKNTLYLQMSSVRPEDTAVYYCARGGSLDGGFFYYGMDVWGQGTTVTVSS
VL: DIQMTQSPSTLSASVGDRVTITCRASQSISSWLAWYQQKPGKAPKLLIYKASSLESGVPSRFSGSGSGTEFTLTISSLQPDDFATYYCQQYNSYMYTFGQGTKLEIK
notes: also called 96A10H9; fully human anti-GITR antibody
B4: 3503-mAb070 (antibody, V domains shown)
VH: B1 VH with Y59F, A61V, N85S, G101A, N102S
VL: B1 VL with T42K
notes: Chimeric antibody purified from hybridoma supernatant of Harbour H2L2 mice: human variable regions with rat constant regions; also called 272G5E1; chimeric anti-GITR antibody
B5: 3503-hab070e1 (antibody, V domains shown)
VH: B1 VH with Y59F, A61V, N85S, G101A, N102S
VL: B1 VL with T42K, C87Y
notes: also called 272G5E1; engineered fully human anti-GITR antibody
B6: 3503-mAb076 (antibody, V domains shown)
VH: B1 VH with N85S, G101A, N102S
VL: B1 VL with F32Y, T42K
notes: Chimeric antibody purified from hybridoma supernatant of Harbour H2L2 mice: human variable regions with rat constant regions; also called 277C12G4; chimeric anti-GITR antibody
B7: 3503-mAb064 (antibody, V domains shown)
VH: B1 VH
VL: B1 VL
notes: Chimeric antibody purified from hybridoma supernatant of Harbour H2L2 mice: human variable regions with rat constant regions; also called 265G9A11; chimeric anti-GITR antibody
B8: 3503-mAb019 (antibody, V domains shown)
VH: B3 VH
VL: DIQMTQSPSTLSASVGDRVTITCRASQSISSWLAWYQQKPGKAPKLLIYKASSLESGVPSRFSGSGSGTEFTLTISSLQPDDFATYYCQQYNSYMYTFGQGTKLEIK
notes: Chimeric antibody purified from hybridoma supernatant of Harbour H2L2 mice: human variable regions with rat constant regions; also called 96A10H9; chimeric anti-GITR antibody
B9: 3503-hab019e2 (antibody, V domains shown)
VH: B3 VH with S84N, V86L, P88A, D103E
VL: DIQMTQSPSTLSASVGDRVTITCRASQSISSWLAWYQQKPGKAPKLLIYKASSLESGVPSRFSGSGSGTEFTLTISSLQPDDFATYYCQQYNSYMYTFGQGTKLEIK
notes: also called 96A10H9; engineered fully human anti-GITR antibody

As a reminder, the EC50 is the concentration needed to bring the measured effect to its halfway point. In general, Kd refers to a measure of binding affinity in units of concentration. In general, koff refers to the rate constant with which the complex falls apart. One may read the kon as the rate constant with which the complex forms.

Substitutions are numbered along the chain they refer to. Bounds are passed on as bounds.

In the first assay the target is T3, monkey GITR (full length, on cells) (monkey).
T3 construct: whole, on cells; also called cGITR
Put plainly: flow cytometry (FACS) on 293F-cGITR cells, MFI curve fit. As for the experimental part: (§1) The pIRES plasmid with the monkey-derived GITR full-length gene was transfected into the HEK293 cell line to construct a HEK293 stable cell line containing monkey GITR (herein referred to as HEK293-cGITR stable cell line), wherein the database accession number of the monkey GITR nucleotide sequence is XP_005545180.1. The tool antibody Tab9H6v3 was constructed with reference to the patent (US_2015_0064204_A1). […] The medium was aspirated, and the cells were incubated with chimeric anti-GITR antibody or IgG1 isotype control antibody in PBS+2% FBS for 1 hour so that the antibody binds to the GITR protein expressed on the cell surface. Cells were collected and washed, and then incubated with anti-human antibody conjugated with fluorescent dye at 4° C. for 1 hour. Mean fluorescence intensity (MFI) of chimeric anti-GITR antibodies bound to cells expressing hGITR or cGITR was determined by flow cytometry. The EC50 of the fitting curve was calculated by GraphPad Prism software. The antibody to be tested can bind to human or monkey GITR protein on the cell surface. The data in the table is the average fluorescence intensity values of the cell populations measured by MFI.
Background: Flow cytometry measures light scatter and fluorescence of single cells or particles in a stream.
Turning to B1, the EC50 was 0.254 nM.
Regarding B2, the EC50 stood at 0.58 nM.
Turning to B3, the EC50 was 0.53 nM.

Another assay deals with T4, cGITR-ECD-hFc (rhesus; human, UniProt F7DDV8 14-149). Put plainly: ELISA, cGITR-ECD-hFc coated on plate, HRP anti-human Fab detection.
T4 sequence (F7DDV8 entry or part of it): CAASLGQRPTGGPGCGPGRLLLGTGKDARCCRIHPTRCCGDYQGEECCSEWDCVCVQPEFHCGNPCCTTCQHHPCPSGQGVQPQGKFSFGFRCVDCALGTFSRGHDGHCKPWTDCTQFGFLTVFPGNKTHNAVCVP
For the molecule B1, the midpoint of the response, the EC50, lay at 0.0369 nM.
On the same count and under the same terms, the value for B2 was 0.0551 nM; that for B3 was 0.0717 nM.

The next assay addresses T3, monkey GITR (full length, on cells). The assay is described as follows: flow cytometry (FACS) on 293F-cGITR cells, MFI curve fit. The source holds these as a separate data set. As to the method: as §1
B4 registered an EC50 of 0.198 nM.
Same read-out and setting: the value for B5 was 0.264 nM; that for B6 was 0.226 nM; that for B7 was 0.404 nM.
The same measure, in the same setting: the value for B8 was 0.01 nM.
On the same count and under the same terms, the value for B3 was 0.418 nM; that for B9 was 0.31 nM.

A further assay addresses T1, human GITR (full length, on cells). The assay is described as follows: flow cytometry (FACS) on 293F-hGITR cells, MFI curve fit. As for the experimental part:
as §1
The molecule B4 came in with an EC50 of 0.358 nM.
B5 came in with an EC50 of 0.169 nM.
B6: the EC50 is 0.152 nM.
On the same count and under the same terms, the value for B7 was 0.385 nM; that for B8 was 0.07 nM; that for B3 was 0.222 nM.
Same read-out and setting: the value for B9 was 0.155 nM.

A further assay deals with T2, hGITR-ECD-hFc. The assay is described as follows: SPR (Biacore T200), hGITR-ECD-hFc immobilised on CM5 chip, antibody as analyte. As to the method: (§2) The antigen hGITR-ECD-hFc was immobilized on the chip surface in manual mode using the running buffer HBS-EP+(10 mM HEPES, 150 mM NaCl, 3 mM EDTA, 0.05% P20, pH 7.4). First, a fresh mixture of 50 mM NHS and 200 mM EDC was used to activate the flow cell 4 of the tandem S CM5 sensor chip. The antigen was then diluted to 1 μg/ml with 10 mM NaAC (pH 5.0) and was injected into flow cell 4 for approximately 40 seconds. Finally, 1 M ethanolamine was used to block the remaining active coupling sites.
Buffer flow was maintained for 600 seconds to determine dissociation. To remove the test antibody from the surface, 10 mM Glycine-HCl (pH 1.5) was injected into flow cells 1 and 4 at a flow rate of 10 μ L/min for 30 seconds. The above steps were repeated for each concentration of continuously diluted antibodies.
The KD value of each antibody was evaluated using Biacore T200 evaluation software 3.0, where flow cell 1 was used as a reference flow cell.
A general note: SPR reads the build-up and loss of mass on a sensor chip optically.
On to B1, for which binding was put at a Kd of 0.592 nM, the koff worked out at 0.000315 s⁻¹ and the kon came to 532000 M⁻¹ s⁻¹.
The corresponding values for B2 are 1.03 nM, 0.000684 s⁻¹ and 664000 M⁻¹ s⁻¹.
The corresponding values for B3 are 0.401 nM, 0.000205 s⁻¹ and 512000 M⁻¹ s⁻¹.

Another assay deals with T1, human GITR (full length, on cells). The assay is described as follows: cell-based or functional assay.
With B5, the “Activation of NF-κB activity, EC50 (nM), Coupling” value is 4.08 nM and the “Activation of NF-κB activity, EC50 (nM), Non-coupling” value came out at 0.0957 nM.
Take B3: the “Activation of NF-κB activity, EC50 (nM), Coupling” value came to 10.9 nM and the “Activation of NF-κB activity, EC50 (nM), Non-coupling” value was 0.166 nM.
The corresponding values for B9 are 1.74 nM and 0.139 nM.

The target is the same in the next assay. Put plainly: cell-based or functional assay. This is another data set of the same source.
Take B4: the “Activation of NF-κB activity, EC50 (nM), Coupling (Crosslinking)” value was more than 0.09 nM and the “Activation of NF-κB activity, EC50 (nM), Non-coupling (Non-Crosslinking)” value turned out to be 0.062 nM.
The corresponding values for B6 are more than 0.27 nM and more than 0.09 nM.
The corresponding values for B7 are 0.101 nM and more than 0.2 nM.
For the molecule B8, the “Activation of NF-κB activity, EC50 (nM), Coupling (Crosslinking)” value is 12.5 nM.

The target of another assay is T2, hGITR-ECD-hFc. The assay is described as follows: SPR (Biacore), hGITR-ECD-hFc immobilised on CM5 chip, antibody as analyte. As to the method:
as §2
Binding kinetics and affinity of the engineered fully human anti-GITR antibody to the antigen hGITR-ECD-hFc protein were tested by Biacore according to step (5) of Example 5, and the results are shown in Table 17.
In the case of B5, the Kd was found to be 0.537 nM, the koff was 0.000381 s⁻¹ and the kon came to 710000 M⁻¹ s⁻¹.
The corresponding values for B9 are 0.384 nM, 0.00023 s⁻¹ and 600000 M⁻¹ s⁻¹.

A further assay has as its target T2, hGITR-ECD-hFc. The assay is described as follows: ELISA, hGITR-ECD-hFc coated on plate, HRP anti-human Fab detection. As to the method: (§3) HGITR-ECD-hFc protein and cGITR-ECD-hFc protein were diluted to 1 μg/ml with PBS hydrochloric acid buffer (pH 7.2), and 100 μl dilution was added to 96-well ELISA microplate, and incubated at 4° C. overnight. The microplate was washed three times with 300 μl/well wash buffer PBST (PBS+0.05% Tween-20), 300 μl blocking buffer (PBST+1% BSA) was added to each well, and incubated at room temperature for 2 hours. The plate was washed three times, 100 μl, 10 μg/ml anti-GITR antibody was added to each well, and was incubated at 37° C. for 1 hour. The plate was washed three times, 100 μl horseradish peroxidase (HRP) labeled anti-human Fab secondary antibody was added to each well, and was incubated at 37° C. for half an hour. The plate was washed three times, 100 μl tetramethylbenzidine (TMB) was added to each well. After 15 minutes of color development, 50 μl 1N HCl termination solution was added to each well, and the OD450 value was read with a plate reader. The EC50 of the binding curve was calculated by GraphPad Prism software.
The binding activity of the engineered fully human anti-GITR antibody to the hGITR-ECD-hFc protein or the cGITR-ECD-hFc protein was detected by an enzyme-linked immunosorbent assay iaccording to the step (1) of Example 5.
On the technique in general: In an ELISA, binding on a coated surface is turned into a signal by an enzyme label.
In the case of B5, the response was half-maximal at 0.074 nM (EC50).
Same read-out and setting: the value for B3 was 0.11 nM; that for B9 was 0.089 nM.

For a further assay, the target named is T4, cGITR-ECD-hFc. The assay is described as follows: ELISA, cGITR-ECD-hFc coated on plate, HRP anti-human Fab detection. This is another data set of the same source.
In turn, B5 came in with an EC50 of 0.062 nM.
On the same count and under the same terms, the value for B3 was 0.115 nM; that for B9 was 0.096 nM.

The target in the next assay is T2, hGITR-ECD-hFc. The assay is described as follows: ELISA, hGITR-ECD-hFc coated on plate, HRP anti-human Fab detection. The source holds these as a separate data set. As to the method:
as §3
Molecule B1 yielded a half-maximal effective concentration (EC50) of 0.0443 nM.
On the same count and under the same terms, the value for B2 was 0.0593 nM.
Still for that read-out and setting: the value for B3 was 0.0791 nM.

The next assay concerns the target T1, human GITR (full length, on cells). The assay is described as follows: cell-based or functional assay. This is another data set of the same source.
B1: the “Activation of NF-κB activity, EC50 (nM), Coupling” value worked out at 2.8 nM and the “Activation of NF-κB activity, EC50 (nM), Non-coupling” value was found to be 0.177 nM.
For the molecule B2, the “Activation of NF-κB activity, EC50 (nM), Coupling” value was 1.33 nM and the “Activation of NF-κB activity, EC50 (nM), Non-coupling” value stood at 0.127 nM.
With B3, the “Activation of NF-κB activity, EC50 (nM), Coupling” value is 4.42 nM and the “Activation of NF-κB activity, EC50 (nM), Non-coupling” value stood at 0.281 nM.

For a further assay the target is unchanged. Put plainly: flow cytometry (FACS) on 293F-hGITR cells, MFI curve fit. The source holds these as a separate data set. As for the experimental part: as §1
Turning to B1, a half-maximal effect (EC50) was put at 0.194 nM.
B2: the EC50 was 0.173 nM.
Still for that read-out and setting: the value for B3 was 0.25 nM.

The values are drawn from patent US20220119541A1 (PHARMAEXPLORER, published 2022).
